Data as given in patent publication US20200148774A1 (Genentech, published 2020).

Columns and labels:
[1] = target: T1, human CLL-1 on cells (endogenous on HL-60, EOL-1 and other AML cell lines and CD14+ monocytes); recombinant on … (human, UniProt Q5QGZ9 1-265); assay: Scatchard (125I-antibody competition), HL-60 cells
T1 construct: also called 293AD/huCLL-1; tumor-derived CLL-1
T1 sequence: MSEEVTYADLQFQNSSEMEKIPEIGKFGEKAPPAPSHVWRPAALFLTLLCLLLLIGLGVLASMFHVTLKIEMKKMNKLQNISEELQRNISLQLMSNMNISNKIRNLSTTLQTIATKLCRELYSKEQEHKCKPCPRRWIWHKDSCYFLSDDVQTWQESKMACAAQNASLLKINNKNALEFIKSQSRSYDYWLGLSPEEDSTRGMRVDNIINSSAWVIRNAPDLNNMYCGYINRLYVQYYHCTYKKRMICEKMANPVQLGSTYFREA
Method: (§1) Anti-CLL-1 antibodies were [I¹²⁵] labeled using the indirect lodogen method. […] Competition assay mixtures of 50 μL volume containing a fixed concentration of [1¹²⁵] labeled antibody and decreasing concentrations of serially diluted, unlabeled antibody were placed into 96-well plates. HEK293AD cells stably expressing recombinant hu or cynoCLL-1 or HL-60 tumor cells expressing endogenous CLL-1 were cultured in growth media at 37° C. in 5% CO₂. Cells were detached from the flask using Sigma Cell Dissociation Solution and were washed with binding buffer, which consisted of Dulbecco's Modified Eagle Medium (DMEM) with 1% bovine serum albumin (BSA), […] and 0.1% sodium azide. The washed cells were added to the 96 well plates at a density of 100,000 cells in 0.2 mL of binding buffer. […] The final concentration of the unlabeled antibody in the competition assay ranged from 1000 nM through ten 2-fold dilution steps to a 0 nM buffer-only assay. Competition assays were carried out in triplicate. Competition assays were incubated for 2 hours at room temperature. […] The filters were counted on a Wallac Wizard 1470 gamma counter (PerkinElmer Life and Analytical Sciences Inc.; Wellesley, Mass.). The binding data was evaluated using NewLigand software (Genentech), which uses the fitting algorithm of Munson and Robard to determine the binding affinity of the antibody (Munson and Robard 1980).

[2] = target: T1, human CLL-1 on cells (endogenous on …); assay: Scatchard (125I-antibody competition), 293AD/huCLL-1 cells
Method: as §1

[3] = target: T2, cynomolgus CLL-1 on cells (recombinant on HEK293AD cells) (cynomolgus monkey); assay: Scatchard (125I-antibody competition), 293AD/cynoCLL-1 cells
T2 construct: also called 293AD/cynoCLL-1; 293AD/cynoCLL1
T2 chain: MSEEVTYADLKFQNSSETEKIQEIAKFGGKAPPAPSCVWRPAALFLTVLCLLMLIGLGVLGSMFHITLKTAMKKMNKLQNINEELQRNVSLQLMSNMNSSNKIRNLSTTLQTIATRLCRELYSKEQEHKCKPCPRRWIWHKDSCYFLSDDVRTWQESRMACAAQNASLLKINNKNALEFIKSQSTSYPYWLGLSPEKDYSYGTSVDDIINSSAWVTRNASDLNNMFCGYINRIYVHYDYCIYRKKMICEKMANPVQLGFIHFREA
Method: as §1

[4] = target: T3, recombinant human CLL-1 extracellular domain (ECD, amino acids 65-265) fused to an N-terminal Flag (human, UniProt Q5QGZ9 65-265); assay: SPR (Biacore T200), IgG captured by anti-human Fc, human CLL-1 as analyte
T3 construct: The construct and the K244Q SNP are stated for the immunogen; they are not written as a piece; also called huCLL-1-Flag; huCLL-1
T3 chain: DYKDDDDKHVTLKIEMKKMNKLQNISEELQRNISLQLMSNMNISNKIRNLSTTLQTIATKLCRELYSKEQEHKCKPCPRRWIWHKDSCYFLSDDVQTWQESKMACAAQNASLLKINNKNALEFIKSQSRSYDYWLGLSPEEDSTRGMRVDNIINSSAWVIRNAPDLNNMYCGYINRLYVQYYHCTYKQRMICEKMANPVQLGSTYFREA
Method: The binding affinity of the antibodies in this section was determined by BIAcore™ T200 Format. Briefly, BIAcore™ research grade CM5 chips were activated with 1-ethyl-3-(3-dimethylaminopropyl) carbodiimide (EDC) and N-hydroxysuccinimide (NHS) reagents according to the supplier's instructions. Goat anti-human Fc IgGs were coupled to the chips to achieve approximately 10,000 response units (RU) in each flow cell. Unreacted coupling groups were blocked with 1M ethanolamine. For kinetics measurements, antibodies were captured to achieve approximately 300 RU. Three-fold serial dilutions of human CLL-1 was injected in HBS-P buffer (0.01M HEPES pH7.4, 0.15M NaCl, 0.005% surfactant P20) at 25° C. with a flow rate of 30 μl/min. Association rates (kon) and dissociation rates (koff) were calculated using a 1:1 Langmuir binding model (BIAcore™ T200 Evaluation Software version 2.0). The equilibrium dissociation constant (Kd) was calculated as the ratio koff/kon.

[5] = target: T3, recombinant human CLL-1 extracellular …; assay: SPR (Biacore), chimeric IgG captured by anti-human IgG, CLL-1 as analyte
Method: (§2) The chimeric anti-CLL-1 human IgG were captured by mouse anti-human IgG coated on the CM5 sensor chip. […] Association rates (kon) and dissociation rates (koff) were calculated using a simple one-to-one Langmuir binding model. The equilibrium dissociation constant (KD) was calculated as the ratio koff/kon.

[6] = target: T4, recombinant cynomolgus CLL-1 extracellular domain (ECD, amino acids 65-265) fused to an N-terminal Flag (cynomolgus monkey); assay: as above
T4 construct: Construct stated for the immunogen; also called CynoCLL-1 Flag; cynoCLL-1
T4 chain: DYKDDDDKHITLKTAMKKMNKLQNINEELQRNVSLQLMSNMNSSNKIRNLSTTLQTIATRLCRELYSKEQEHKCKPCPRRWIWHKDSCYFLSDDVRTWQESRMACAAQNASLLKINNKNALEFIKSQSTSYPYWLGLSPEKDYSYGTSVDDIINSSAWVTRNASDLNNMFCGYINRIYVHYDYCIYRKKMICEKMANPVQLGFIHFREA
Method: as §2

hCD3ε [7] = target: T5, hCD3ε (human, UniProt P07766 23-126); assay: SPR (Biacore); target printed only as hCD3; format not stated, not the Fab measurement
T5 construct: Also used for the value printed only as 'hCD3 (0.05 nM'); also called human CD3ε polypeptide
T5 sequence (P07766 23-126): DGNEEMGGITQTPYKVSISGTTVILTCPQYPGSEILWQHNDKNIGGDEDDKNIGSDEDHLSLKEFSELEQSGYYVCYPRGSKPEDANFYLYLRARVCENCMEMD

hCD3ε [8] = target: T5, hCD3ε; assay: SPR (Biacore), Fab
hCD3ε [9] = target: T5, hCD3ε; assay: SPR (Biacore), Fab; Fab

Row | Binder | Kd [1] | Kd [2] | Kd [3] | Kd [4] | Kd [5] | koff [5] | kon [5] | Kd [6] | koff [6] | kon [6] | Kd (hCD3ε [7]) | Kd (hCD3ε [8]) | koff (hCD3ε [8]) | kon (hCD3ε [9])
1 | ch21C9 (antibody, V domains shown, chimeric version of m21C9, human IgG; also called chimeric 21C9; Chimeric 21C9) VH: EVQLQQSGPELVKPGASVKMSCKASGYTFTDYYLDWVKQSHGESFEWIGRVNPYNGGTIYNQKFKGKATLTVDKSSSTAYMDLNSLTSEDSAVYYCARDHYRYDPLLDYWGQGTTLTVSS VL: DIQMTQSHKFMSTSVGDRVSITCKASQDVSTAVAWFQQKPGQSPKLLIYSPSYRYTGVPDRFTGSGSGTDFTFTISSVQAEDLAVYYCQQLYSTPYTFGGGTKLEIK | 450 pM | 590 pM | 1200 pM | 8620 pM | 9700 pM | 0.0024 s⁻¹ | 250000 M⁻¹ s⁻¹ | 7100 pM | 0.0012 s⁻¹ | 160000 M⁻¹ s⁻¹ | – | – | – | –
2 | ch6E7 (antibody, V domains shown, chimeric version of m6E7, human IgG; also called chimeric 6E7; Chimeric 6E7) VH: QVQLQQSGPELVKPGASVKISCKASGYSFTDYYMHWVKQSHIKSLEWIGRINPYNGAAFYSQNFKDKASLTVDKSSSTAYMELHSLTSEDSAVYYCAIERGADLEGYAMDYWGQGTSVTVSS VL: DIVLTQSPSSLIVSLGQRATISCRASQSVSTSSYNYMHWYQQKPGQPPKLLLKYASNLESGVPARFSGSGSGTDFTLNIHPVEEEDTATYYCQHSWEIPLTFGAGTKLEIK | 650 pM | 800 pM | 1000 pM | 959 pM | 900 pM | 0.00044 s⁻¹ | 460000 M⁻¹ s⁻¹ | 1100 pM | 0.00046 s⁻¹ | 400000 M⁻¹ s⁻¹ | – | – | – | –
3 | 38E4v11 (antibody, V domains shown, also called h38E4v11) VH: EVQLVQSGAEVKKPGASVKVSCKASGFTFTSYYIHWVRQAPGQGLEWIGWIYPENDNTKYNEKFKDRVTITADTSTSTAYLELSSLRSEDTAVYYCARDGYSRYYFDYWGQGTLVTVSS VL: DIVMTQSPDSLAVSLGERATINCKSSQSLLNSRTRKNYLAWYQQKPGQSPKLLIYWTSTRKSGVPDRFSGSGSGTDFTLTISSLQAEDVAVYYCTQSFILRTFGQGTKVEIK | – | – | – | – | – | – | – | – | – | – | 50 pM | – | – | –
4 | 38E4v11 Fab (Fab, V domains shown, Fab; also called 38E4v11 (Fab Biacore measurements)) VH: EVQLVQSGAEVKKPGASVKVSCKASGFTFTSYYIHWVRQAPGQGLEWIGWIYPENDNTKYNEKFKDRVTITADTSTSTAYLELSSLRSEDTAVYYCARDGYSRYYFDYWGQGTLVTVSS VL: DIVMTQSPDSLAVSLGERATINCKSSQSLLNSRTRKNYLAWYQQKPGQSPKLLIYWTSTRKSGVPDRFSGSGSGTDFTLTISSLQAEDVAVYYCTQSFILRTFGQGTKVEIK | – | – | – | – | – | – | – | – | – | – | – | 32 pM | 0.0016 s⁻¹ | 5e+07 M⁻¹ s⁻¹
